According to patent US20210371530A1 (Merck Sharp & Dohme, published 2021):

Biological target: human PD-1 on cells (human, UniProt Q15116 25-288)
Test: cell-based or functional assay

Chain of human PD-1 on cells (Q15116 25-288): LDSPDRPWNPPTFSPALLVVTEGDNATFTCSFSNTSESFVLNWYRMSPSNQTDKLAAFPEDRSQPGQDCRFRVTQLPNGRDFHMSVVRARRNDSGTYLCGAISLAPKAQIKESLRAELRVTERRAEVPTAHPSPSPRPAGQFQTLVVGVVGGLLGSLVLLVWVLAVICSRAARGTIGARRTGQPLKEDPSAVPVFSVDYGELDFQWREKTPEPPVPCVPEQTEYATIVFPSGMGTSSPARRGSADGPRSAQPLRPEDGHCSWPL

Binder | AVG EC50 (nM), IL-2 luciferase reporter, Jurkat.hPD-1.IL2luc + THP-1.PD-L1 assay
Anti-PD-1/LAG-3 bispecific antibody 18ASS (bispecific antibody, human IgG1, kappa, L234A L235A) heavy 1: not shown light 1: DIVMTQTPLSLSVTPGQPASISCRASKSVSTSGFSYLHWYLQKPGQPPQLLIFLSKYRSSGVPDRFSGSGSGTDFTLKISRVEAEDVGVYYCSQAYHLPLTFGQGTKLEIKRTVAAPSVFIFPPSDERLKSGTASVVCLLNNFYPREAKVQWKVDNALQSGNSQESVTEQDSKDSTYSLSSRLTLSKADYEKHKVYACEVTHQGLSSPVTKSFNRGEC heavy 2: QMQLVQSGPEVKKPGTSVKVSCKASGYTFTDYNVDWVRQARGQRLEWIGDINPNDGGTIYAQKFQERVTITVDKSTSTAYMELSSLRSEDTAVYYCARNYRWFGAMDHWGQGTTVTVSSASTKGPSVFPLAPSSKSTSGGTAALGCLVKDYFPEPVTVSWNSGALTSGVHTFPAVLQSSGLYKLSSVVTVPSSSLGTQTYICNVNHKPSNTKVDKKVEPKSCDKTHTCPPCPAPEAAGGPSVFLFPPKPKDTLMISRTPEVTCVVVSVSHEDPEVKFNWYVDGVEVHNAKTKPREEQYNSTYRVVSVLTVLHQDWLNGKEYKCKVSNKALPAPIEKTISKAKGQPREPQVYVLPPSRDELTKNQVSLLCLVKGFYPSDIAVEWESNGQPENNYLTWPPVLDSDGSFFLYSKLTVDKSRWQQGNVFSCSVMHEALHNHYTQKSLSLSPG light 2: DIVMTQTPLSLSVTPGQPASISCKASQSLDYEGDSDMNWYLQKPGQPPQLLIYGASNLESGVPDRFSGSGSGTDFTLKISRVEAEDVGVYYCQQSTEDPRTFGGGTKVEIKRTVAAPSVFIFPPSDEELKSGTATVVCLLNNFYPREAKVQWKVDNALQSGNSQESVTEQDSKDSTYSLSSYLELSKADYEKHKVYACEVTHQGLSSPVTKSFNRGEC | 0.55 nM
Fab 00APE (humanized 08A Fab with S61N correction) (Fab, V domains shown) VH: EVQLVQSGAEVKKPGASVKVSCKASGYTFTSYYLYWVRQAPGQGLEWIGGVNPSNGGTNFNEKFKSRVTLTVDTSISTAYMELSRLRSDDTAVYYCTRRDSNYDGGFDYWGQGTTVTVSS VL: DIVMTQTPLSLSVTPGQPASISCRASKSVSTSGFSYLHWYLQKPGQPPQLLIFLASNLESGVPDRFSGSGSGTDFTLKISRVEAEDVGVYYCQHSWELPLTFGQGTKLEIKR | 3.32 nM
Anti-PD-1/LAG3 bispecific antibody 33ARK (bispecific antibody, human IgG1, kappa, L234A L235A) heavy 1: EVQLVQSGAEVKKPGASVKVSCKASGYTFTSYYLYWVREAPGQGLEWIGGVNPSNGGTNFNEKFKSRVTLTVDTSISTAYMELSRLRSDDTAVYYCTRRDSNYDGGFDYWGQGTTVTVSSASTKGPSVFPLAPSSKSTSGGTAALGCEVTDYFPEPVTVSWNSGALTSGVHTFPAVLESSGLYSLSSVVTVPSSSLGTQTYICNVNHKPSNTKVDKKVEPKSCDKTHTCPPCPAPEAAGGPSVFLFPPKPKDTLMISRTPEVTCVVVSVSHEDPEVKFNWYVDGVEVHNAKTKPREEQYNSTYRVVSVLTVLHQDWLNGKEYKCKVSNKALPAPIEKTISKAKGQPREPQVYVLPPSRDELTKNQVSLLCLVKGFYPSDIAVEWESNGQPENNYLTWPPVLDSDGSFFLYSKLTVDKSRWQQGNVFSCSVMHEALHNHYTQKSLSLSPG light 1: DIVMTQTPLSLSVTPGQPASISCRASKSVSTSGFSYLHWYLRKPGQPPQLLIFLASNLESGVPDRFSGSGSGTDFTLKISRVEAEDVGVYYCQHSWELPLTFGQGTKLEIKRTVAAPSVFIFPPSDERLKSGTASVVCLLNNFYPREAKVQWKVDNALQSGNSKESVTEQDSKDSTYSLSSRLTLSKADYEKHKVYACEVTHQGLSSPVTKSFNRGEC heavy 2: not shown light 2: DIVMTQTPLSLSVTPGQPASISCKASQSLDYEGDSDMNWYLEKPGQPPQLLIYGASNLESGVPDRFSGSGSGTDFTLKISRVEAEDVGVYYCQQSTEDPRTFGGGTKVEIKRTVAAPSVFIFPPSDEELKSGTASVVCLLNNFYPREAKVQWKVDNALQSGNSEESVTEQDSKDSTYSLSSTLELSKADYEKHKVYACEVTHQGLSSPVTKSFNRGEC | 3.12 nM
